Consider 19 molecules from patent publication US20170260272A1 (Novartis, published 2017).

The labels stand for the following.
B1: MOR021458 (antibody, V domains shown)
VH: QVQLLESGGGLVQPGGSLRLSCAASGFTFSDYALHWVRQAPGKGLEWVSSISYVGGFIYYADSVKGRFTISRDNSKNTLYLQMNSLRAEDTAVYYCARSPGLTSYHDSWGQGTLVTVSS
VL: DIVLTQPPSVSGAPGQRVTISCSGSSSNIGSNYVSWYQQLPGTAPKLLIHSNSHRPSGVPDRFSGSKSGTSASLAITGLQAEDEADYYCQSWDYESERVVFGGGTKLTVLG
notes: IgG (human IgG1f LALA); parent MOR20144 with the printed HCDR2 stretch exchanged
B2: MOR021463 (antibody, V domains shown)
VH: QVQLLESGGGLVQPGGSLRLSCAASGFTFSDYALHWVRQAPGKGLEWVSVISYMGGFKYYADSVKGRFTISRDNSKNTLYLQMNSLRAEDTAVYYCARSPGLTSYHDSWGQGTLVTVSS
VL: DIVLTQPPSVSGAPGQRVTISCSGSSSNIGSNYVSWYQQLPGTAPKLLIHSNSHRPSGVPDRFSGSKSGTSASLAITGLQAEDEADYYCQSWDYESERVVFGGGTKLTVLG
notes: as for B1
B3: MOR021462 (antibody, V domains shown)
VH: QVQLLESGGGLVQPGGSLRLSCAASGFTFSDYALHWVRQAPGKGLEWVSGISYQGGFIFYADSVKGRFTISRDNSKNTLYLQMNSLRAEDTAVYYCARSPGLTSYHDSWGQGTLVTVSS
VL: DIVLTQPPSVSGAPGQRVTISCSGSSSNIGSNYVSWYQQLPGTAPKLLIHSNSHRPSGVPDRFSGSKSGTSASLAITGLQAEDEADYYCQSWDYESERVVFGGGTKLTVLG
notes: as for B1
B4: MOR021467 (antibody, V domains shown)
VH: QVQLLESGGGLVQPGGSLRLSCAASGFTFSDYALHWVRQAPGKGLEWVSVISYQGGFTFYADSVKGRFTISRDNSKNTLYLQMNSLRAEDTAVYYCARSPGLTSYHDSWGQGTLVTVSS
VL: DIVLTQPPSVSGAPGQRVTISCSGSSSNIGSNYVSWYQQLPGTAPKLLIHSNSHRPSGVPDRFSGSKSGTSASLAITGLQAEDEADYYCQSWDYESERVVFGGGTKLTVLG
notes: as for B1
B5: MOR021469 (antibody, V domains shown)
VH: QVQLLESGGGLVQPGGSLRLSCAASGFTFSDYALHWVRQAPGKGLEWVSAISYQGGFIFYADSVKGRFTISRDNSKNTLYLQMNSLRAEDTAVYYCARSPGLTSYHDSWGQGTLVTVSS
VL: DIVLTQPPSVSGAPGQRVTISCSGSSSNIGSNYVSWYQQLPGTAPKLLIHSNSHRPSGVPDRFSGSKSGTSASLAITGLQAEDEADYYCQSWDYESERVVFGGGTKLTVLG
notes: as for B1
B6: MOR021459 (antibody, V domains shown)
VH: QVQLLESGGGLVQPGGSLRLSCAASGFTFSDYALHWVRQAPGKGLEWVSVISYVGGFKFYADSVKGRFTISRDNSKNTLYLQMNSLRAEDTAVYYCARSPGLTSYHDSWGQGTLVTVSS
VL: DIVLTQPPSVSGAPGQRVTISCSGSSSNIGSNYVSWYQQLPGTAPKLLIHSNSHRPSGVPDRFSGSKSGTSASLAITGLQAEDEADYYCQSWDYESERVVFGGGTKLTVLG
notes: as for B1
B7: MOR021461 (antibody, V domains shown)
VH: QVQLLESGGGLVQPGGSLRLSCAASGFTFSDYALHWVRQAPGKGLEWVSVISYAGGFTYYADSVKGRFTISRDNSKNTLYLQMNSLRAEDTAVYYCARSPGLTSYHDSWGQGTLVTVSS
VL: DIVLTQPPSVSGAPGQRVTISCSGSSSNIGSNYVSWYQQLPGTAPKLLIHSNSHRPSGVPDRFSGSKSGTSASLAITGLQAEDEADYYCQSWDYESERVVFGGGTKLTVLG
notes: as for B1
B8: MOR021470 (antibody, V domains shown)
VH: QVQLLESGGGLVQPGGSLRLSCAASGFTFSDYALHWVRQAPGKGLEWVSVISYAGAFTYYADSVKGRFTISRDNSKNTLYLQMNSLRAEDTAVYYCARSPGLTSYHDSWGQGTLVTVSS
VL: DIVLTQPPSVSGAPGQRVTISCSGSSSNIGSNYVSWYQQLPGTAPKLLIHSNSHRPSGVPDRFSGSKSGTSASLAITGLQAEDEADYYCQSWDYESERVVFGGGTKLTVLG
notes: as for B1
B9: MOR021465 (antibody, V domains shown)
VH: QVQLLESGGGLVQPGGSLRLSCAASGFTFSDYALHWVRQAPGKGLEWVSVISYQGAFIYYADSVKGRFTISRDNSKNTLYLQMNSLRAEDTAVYYCARSPGLTSYHDSWGQGTLVTVSS
VL: DIVLTQPPSVSGAPGQRVTISCSGSSSNIGSNYVSWYQQLPGTAPKLLIHSNSHRPSGVPDRFSGSKSGTSASLAITGLQAEDEADYYCQSWDYESERVVFGGGTKLTVLG
notes: as for B1
B10: MOR021466 (antibody, V domains shown)
VH: QVQLLESGGGLVQPGGSLRLSCAASGFTFSDYALHWVRQAPGKGLEWVSVISYMGGFKFYADSVKGRFTISRDNSKNTLYLQMNSLRAEDTAVYYCARSPGLTSYHDSWGQGTLVTVSS
VL: DIVLTQPPSVSGAPGQRVTISCSGSSSNIGSNYVSWYQQLPGTAPKLLIHSNSHRPSGVPDRFSGSKSGTSASLAITGLQAEDEADYYCQSWDYESERVVFGGGTKLTVLG
notes: as for B1
B11: MOR021454 (antibody, V domains shown)
VH: QVQLVESGGGLVKPGGSLRLSCAASGFTFSSYALSWVRQAPGKGLEWVGRIRHYKWGGTTEYAAPVKGRFTISRDDSKNTLYLQMNSLKTEDTAVYYCARDFWADHYYYFDYWGQGTLVTVSS
VL: DIALTQPASVSGSPGQSITISCTGTSSDVGYINYVNWYQQHPGKAPKLMIYEVSNRPSGVSNRFSGSKSGNTASLTISGLQAEDEADYYCASWDWYDNVVFGGGTKLTVLG
notes: IgG (human IgG1f LALA); parent MOR20151 with the printed HCDR2 stretch exchanged
B12: MOR021457 (antibody, V domains shown)
VH: QVQLVESGGGLVKPGGSLRLSCAASGFTFSSYALSWVRQAPGKGLEWVGRTRMWTVGYTTHYAASVKGRFTISRDDSKNTLYLQMNSLKTEDTAVYYCARDFWADHYYYFDYWGQGTLVTVSS
VL: DIALTQPASVSGSPGQSITISCTGTSSDVGYINYVNWYQQHPGKAPKLMIYEVSNRPSGVSNRFSGSKSGNTASLTISGLQAEDEADYYCASWDWYDNVVFGGGTKLTVLG
notes: as for B11
B13: MOR021456 (antibody, V domains shown)
VH: QVQLVESGGGLVKPGGSLRLSCAASGFTFSSYALSWVRQAPGKGLEWVGRIRYWPDGYTTHYAASVKGRFTISRDDSKNTLYLQMNSLKTEDTAVYYCARDFWADHYYYFDYWGQGTLVTVSS
VL: DIALTQPASVSGSPGQSITISCTGTSSDVGYINYVNWYQQHPGKAPKLMIYEVSNRPSGVSNRFSGSKSGNTASLTISGLQAEDEADYYCASWDWYDNVVFGGGTKLTVLG
notes: as for B11
B14: MOR021434 (antibody, V domains shown)
VH: QVQLVQSGAEVKKPGSSVKVSCKASGGTFSDYAISWVRQAPGQGLEWMGGIVPILGAANYAQKFQGRVTITADESTSTAYMELSSLRSEDTAVYYCARDSSTSYYYYFDYWGQGTLVTVSS
VL: DIQMTQSPSSLSASVGDRVTITCRASQDINSWLAWYQQKPGKAPKLLIYQASNLQSGVPSRFSGSGSGTDFTLTISSLQPEDFATYYCQQIDHTPFTFGQGTKVEIKR
notes: IgG (human IgG1f LALA); parent MOR20159 with the printed HCDR2 stretch exchanged
B15: MOR021439 (antibody, V domains shown)
VH: QVQLVQSGAEVKKPGSSVKVSCKASGGTFSDYAISWVRQAPGQGLEWMGGIVPIVGTANYAQKFQGRVTITADESTSTAYMELSSLRSEDTAVYYCARDSSTSYYYYFDYWGQGTLVTVSS
VL: DIQMTQSPSSLSASVGDRVTITCRASQDINSWLAWYQQKPGKAPKLLIYQASNLQSGVPSRFSGSGSGTDFTLTISSLQPEDFATYYCQQMHRFPMTFGQGTKVEIKR
notes: IgG (human IgG1f LALA); parent MOR20159 with the printed LCDR3 stretch exchanged
B16: MOR021438 (antibody, V domains shown)
VH: QVQLVQSGAEVKKPGSSVKVSCKASGGTFSDYAISWVRQAPGQGLEWMGGIVPIVGTANYAQKFQGRVTITADESTSTAYMELSSLRSEDTAVYYCARDSSTSYYYYFDYWGQGTLVTVSS
VL: DIQMTQSPSSLSASVGDRVTITCRASQDINSWLAWYQQKPGKAPKLLIYQASNLQSGVPSRFSGSGSGTDFTLTISSLQPEDFATYYCQQMHRHPITFGQGTKVEIKR
notes: as for B15
B17: MOR021436 (antibody, V domains shown)
VH: QVQLVQSGAEVKKPGSSVKVSCKASGGTFSDYAISWVRQAPGQGLEWMGGIVPIVGTANYAQKFQGRVTITADESTSTAYMELSSLRSEDTAVYYCARDSSTSYYYYFDYWGQGTLVTVSS
VL: DIQMTQSPSSLSASVGDRVTITCRASQDINSWLAWYQQKPGKAPKLLIYQASNLQSGVPSRFSGSGSGTDFTLTISSLQPEDFATYYCQQMQTSLITFGQGTKVEIKR
notes: as for B15
B18: MOR021440 (antibody, V domains shown)
VH: QVQLVQSGAEVKKPGSSVKVSCKASGGTFSDYAISWVRQAPGQGLEWMGGIVPIVGTANYAQKFQGRVTITADESTSTAYMELSSLRSEDTAVYYCARDSSTSYYYYFDYWGQGTLVTVSS
VL: DIQMTQSPSSLSASVGDRVTITCRASQDINSWLAWYQQKPGKAPKLLIYQASNLQSGVPSRFSGSGSGTDFTLTISSLQPEDFATYYCQQMQESLLTFGQGTKVEIKR
notes: as for B15
B19: MOR021437 (antibody, V domains shown)
VH: QVQLVQSGAEVKKPGSSVKVSCKASGGTFSDYAISWVRQAPGQGLEWMGGIVPIVGTANYAQKFQGRVTITADESTSTAYMELSSLRSEDTAVYYCARDSSTSYYYYFDYWGQGTLVTVSS
VL: DIQMTQSPSSLSASVGDRVTITCRASQDINSWLAWYQQKPGKAPKLLIYQASNLQSGVPSRFSGSGSGTDFTLTISSLQPEDFATYYCQQMKISLITFGQGTKVEIKR
notes: as for B15

The target in the test is APP-Avi-soluble human LOX-1(61-273) (human, UniProt P78380 61-273). Nature of the test: SET, IgG vs soluble human LOX-1. The method, then:
Affinity determination for anti-LOX-1 IgGs using Solution Equilibrium Titration (SET) was basically performed as described in the literature (Friguet et al., 1985 J Immunol Methods 77: 305-319). The assays were performed in a 96-well polypropylene plate (Thermo Scientific, Catalog no. AB-1127) using a constant concentration of LOX-1 antibody mixed with different concentrations of non-biotinylated human or cynomolgus monkey LOX-1 protein and incubated at 22° C. for 14 hours with constant shaking (300 rpm).
On a pre-blocked MSD plate (Meso Scale Discovery, catalog no. L21SA) biotinylated human or cynomolgus monkey soluble LOX-1 protein was immobilized and washed afterwards. The equilibrium binding reactions were then applied to the MSD plate with immobilized LOX-1 and incubated for 30 min. The unbound material was removed by washing the plate, and the captured antibody was detected by adding Sulfo-tagged goat anti-human IgG (Meso Scale Discovery, catalog no. R3AJ-1). After incubation and washing 1×MSD read buffer T(Meso Scale Discovery, catalog no. R92TC-2) was added and the plate was developed using a Sector Imager 6000 (Meso Scale Discovery). The data were transferred to Excel for analysis and plotted using GraphPad Prism v5. The KD values were determined by fitting the data to the following equation: […]
On to B1, for which the Kd was 0.6 pM.
The figure for B2 is 1.3 pM; for B3 it is 0.9 pM.
The figure for B4 is 0.9 pM; for B5 it is 1 pM; for B6 it is 0.4 pM.
As to B7, the Kd turned out to be 0.2 pM.
With B8, the Kd stood at 0.5 pM.
B9 showed a Kd of 1.6 pM.
With B10 the figure was 0.6 pM; with B11, 0.7 pM; with B12, 1 pM.
The figure for B13 is 2 pM; for B14 it is 7 pM; for B15 it is 3 pM.
With B16 the figure was 2 pM; with B17, 4 pM.
In turn, B18 yielded a Kd of 6 pM.
The figure for B19 is 4 pM.
